Values of other authors as cited in paper PMC5587394.

Target: FGF20 (Homo sapiens) (UniProt Q9NP95)

Chain of FGF20 (Q9NP95 whole entry): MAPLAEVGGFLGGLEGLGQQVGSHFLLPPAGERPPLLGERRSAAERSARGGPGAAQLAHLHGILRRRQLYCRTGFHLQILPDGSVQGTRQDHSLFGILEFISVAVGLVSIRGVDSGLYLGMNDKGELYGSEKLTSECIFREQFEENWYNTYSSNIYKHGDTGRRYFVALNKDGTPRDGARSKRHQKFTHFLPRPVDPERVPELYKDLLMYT

FGF20 (from UniProt Q9NP95)
Kd: 100 nM
